Two molecules from patent US20240226314A1 (Sanofi, published 2024) can be followed below.

Where “and” joins values, the source holds several entries; their conditions need not be identical. Identical values can stand only once. Like-named read-outs stand apart in the source and are kept apart here.

T1: His-tagged cynomolgus monkey TfR ectodomain (cyTFRC_89_760; mature protein) (cynomolgus monkey (Macaca fascicularis), UniProt Q5RDH6 89-760 (Pongo abelii entry))
T1 construct: also called cTfR; cTfR ectodomain
T1 chain: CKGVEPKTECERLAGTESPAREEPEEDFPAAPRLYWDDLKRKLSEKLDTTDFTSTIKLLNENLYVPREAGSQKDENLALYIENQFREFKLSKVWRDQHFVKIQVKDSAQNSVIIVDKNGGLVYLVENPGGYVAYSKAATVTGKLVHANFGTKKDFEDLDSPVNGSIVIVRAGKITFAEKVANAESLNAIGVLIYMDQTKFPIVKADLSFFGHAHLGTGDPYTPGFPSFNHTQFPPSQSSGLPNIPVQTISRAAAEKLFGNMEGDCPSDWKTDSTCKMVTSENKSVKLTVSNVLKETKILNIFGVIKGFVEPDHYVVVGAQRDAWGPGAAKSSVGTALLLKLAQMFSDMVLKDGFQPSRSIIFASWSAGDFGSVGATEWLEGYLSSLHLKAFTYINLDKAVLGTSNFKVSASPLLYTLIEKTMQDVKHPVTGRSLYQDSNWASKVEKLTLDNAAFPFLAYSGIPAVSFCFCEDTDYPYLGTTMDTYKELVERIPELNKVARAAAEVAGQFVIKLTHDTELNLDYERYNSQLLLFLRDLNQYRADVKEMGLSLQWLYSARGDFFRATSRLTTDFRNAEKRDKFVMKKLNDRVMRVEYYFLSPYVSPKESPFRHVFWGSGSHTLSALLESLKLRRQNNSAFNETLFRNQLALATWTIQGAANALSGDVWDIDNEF

B1: 531v25Fab-FcOL (other)
heavy: QVQLVQSGAEVKKPGASVKVSCKASGYTFTRYYLNWVRQAPGQGLEWIGMIDPSVSETHYAQKFQGRATLTVDKSTSTAYMELSSLRSEDTAVYYCSQIRLPYYYAMDSWGQGTTVTVSSASTKGPSVFPLAPSSKSTSGGTAALGCLVKDYFPEPVTVSWNSGALTSGVHTFPAVLQSSGLYSLSSVVTVPSSSLGTQTYICNVNHKPSNTKVDKKVEPKSCDKTHTCPPCPAPELLGGPSVFLFPPKPKDTLMISRTPEVTCVVVDVSHEDPEVKFNWYVDGVEVHNAKTKPREEQYNNASRVVSVLTVLHQDWLNGKEYKCKVSNKALPAPIEKTISKAKGQPREPQVCTLPPSRDELTKNQVSLSCAVKGFYPSDIAVEWESNGQPENNYKTTPPVLDSDGSFFLVSKLTVDKSRWQQGNVFSCSVMHEALHNRFTQKSLSLSPG
light: not shown
chain: DKTHTCPPCPAPELLGGPSVFLFPPKPKDTLMISRTPEVTCVVVDVSHEDPEVKFNWYVDGVEVHNAKTKPREEQYNNASRVVSVLTVLHQDWLNGKEYKCKVSNKALPAPIEKTISKAKGQPREPQVYTLPPCRDELTKNQVSLWCLVKGFYPSDIAVEWESNGQPENNYKTTPPVLDSDGSFFLYSKLTVDKSRWQQGNVFSCSVMHEALHNHYTQKSLSLSPG
notes: Monovalent heterotrimer; It has a full IgG1 heavy chain (NNAS, hole, RF), a kappa light chain and an Fc polypeptide (knob) that dimerizes with the heavy chain
B2: cTfR: AviTag fused in the N-terminus of the ectodomain of cTfR (amino acid residues 90 to 760 of SEQ ID NO: 2) (receptor)
chain: GSHHHHHHHHGGGGSLNDIFEAQKIEWHGSKGVEPKTECERLAGTESPAREEPEEDFPAAPRLYWDDLKRKLSEKLDTTDFTSTIKLLNENLYVPREAGSQKDENLALYIENQFREFKLSKVWRDQHFVKIQVKDSAQNSVIIVDKNGGLVYLVENPGGYVAYSKAATVTGKLVHANFGTKKDFEDLDSPVNGSIVIVRAGKITFAEKVANAESLNAIGVLIYMDQTKFPIVKADLSFFGHAHLGTGDPYTPGFPSFNHTQFPPSQSSGLPNIPVQTISRAAAEKLFGNMEGDCPSDWKTDSTCKMVTSENKSVKLTVSNVLKETKILNIFGVIKGFVEPDHYVVVGAQRDAWGPGAAKSSVGTALLLKLAQMFSDMVLKDGFQPSRSIIFASWSAGDFGSVGATEWLEGYLSSLHLKAFTYINLDKAVLGTSNFKVSASPLLYTLIEKTMQDVKHPVTGRSLYQDSNWASKVEKLTLDNAAFPFLAYSGIPAVSFCFCEDTDYPYLGTTMDTYKELVERIPELNKVARAAAEVAGQFVIKLTHDTELNLDYERYNSQLLLFLRDLNQYRADVKEMGLSLQWLYSARGDFFRATSRLTTDFRNAEKRDKFVMKKLNDRVMRVEYYFLSPYVSPKESPFRHVFWGSGSHTLSALLESLKLRRQNNSAFNETLFRNQLALATWTIQGAANALSGDVWDIDNEF
modifications: site-specific biotinylation on N-terminal Avitag
notes: Immobilised on streptavidin probes for BLI; also called biotinylated cTfR ectodomain

For experiment [1], the target named is B2. Briefly: BLI; KD on cTfR against KD on hTfR. An excerpt: (§1) A 1:1 binding model with global fitting was applied after double subtraction for buffer and probe analyte interaction with a 0-90 second association and 0-60 dissociation window.
Experiment [2] has as its target T2, hTfR: AviTag fused to the N-terminus of the ectodomain of human TfR (residues 90 to 760 of SEQ ID NO: 1) (human, UniProt P02786 90-760, site-specific biotinylation on N-terminal Avitag).
T2 construct: also called biotinylated hTfR ectodomain
Briefly: BLI, immobilised AviTag-hTfR ectodomain, no saturation. An excerpt: (§2) A 1:1 binding model with global fitting was applied after double subtraction for buffer and probe analyte interaction with a 0-90 second association and 0-60 dissociation window. […] A 1:1 binding model with global fitting was applied after double subtraction for buffer and probe analyte interaction.

Experiment [3] concerns the target T2, hTfR: AviTag fused to the N-terminus of …. As to the kind of experiment: BLI, immobilised hTfR pre-saturated with 500 nM human holo-transferrin (competitor).
Source text: as §2
(In general: Biolayer interferometry detects binding as a change in optical thickness at a sensor tip.)

Experiment [4] addresses T1, His-tagged cynomolgus monkey TfR …. Briefly: SPR, His-tagged TfR ectodomain captured on anti-His, 1:1 fit. The protocol: (§3) Binding of the humanized Fab variants to human, cynomolgus and mouse TfR was assessed using SPR at pH 7.4. Experiments were run on a Bruker MASS-2 instrument with HBS-EP+ as running buffer and sample diluent (Cytiva Life Sciences, #BR100826). HCA sensor chips (Bruker, #1862614) were immobilized with anti-His antibody (His capture kit, Cytiva Life Sciences, #28995056) following manufacturer's instructions. About 10,000 RU of anti-His was obtained. His-tagged hTfR ectodomain (SEQ ID NO: 39), cTfR ectodomain (SEQ ID NO: 40) or mouse TfR ectodomain (SEQ ID NO: 41) (5 μg/ml) was captured for 1 min at 10 μL/min. Concentration series of the humanized Fab variants were then injected for 4 min at 30 μL/min over hTfR surfaces and dissociation was monitored for 5 min. Surface was regenerated with one 1 min pulse of 10 mM glycine-HCl at pH 1.5.

Experiment [5] has as its target T3, His-tagged human TfR ectodomain (hTFRC_89-760_G142S; mature protein) (human, UniProt P02786 89-760).
T3 construct: It carries the G142S haplotype; also called hTfR ectodomain
Described as above. The procedure:
as §3

Experiment [6] addresses B2. Briefly: BLI (Octet), biotinylated AviTag-TfR ectodomain on streptavidin probes, 1:1 global fit.
Source text: as §1

Experiment [7] has as its target T2, hTfR: AviTag fused to the N-terminus of …. The description is as above.
Source text: as §1

Experiment [8] addresses B2. As to the kind of experiment: BLI; KD on cTfR against KD on hTfR.
Source text: as §1

Experiment [9] concerns the target B2. As to the kind of experiment: BLI (Octet), biotinylated AviTag-TfR ectodomain on streptavidin probes, 1:1 global fit.
Source text: as §1

Experiment [10] deals with T2, hTfR: AviTag fused to the N-terminus of …. The experiment is described as above.
Source text: as §1
This is another data set of the same source.

Experiment [11] addresses T4, anti-TfR 531v25-Fab-FcOL-GAA.
T4 construct: Monovalent Fab-FcOL with GAA fused to the C-terminus of the Fc polypeptide
Described as above.
Source text: as §1

In the case of B1, the “Cynomolgus/human KD ratio” value in experiment [1] and in experiment [8] was 4.7 throughout. In addition, the Kd (usually a measure of binding affinity in units of concentration) was 22.1 nM in experiment [2]; 44 nM in experiment [3]; 124 nM and 140 nM and 109 nM in [4]; 11.8 nM and 15 nM and 8.5 nM in experiment [5]; 103 nM in [6]; 22.1 nM in experiment [7]. The Kd in experiment [9] was determined as 103 nM; in [10], 22.1 nM.
B2 came in with a Kd in experiment [11] of 69.9 nM.
